{"source": "patent US10184115B2", "about": "“Mutated cellobiose dehydrogenase with increased substrate specificity” (DIRECTSENS GMBH, priority 2012, dated 2019)", "proteins": {"B1": {"name": "Corynascus thermophilus cellobiose dehydrogenase (CDH), recombinant wild type, SEQ ID NO: 7 (Thermothelomyces fergusii) (protein)", "chain": "QMTEGTYTHEATGITFKTWTPSDGSTFTFGLALPGDALTNDATEYIGLLRCQITDPSSPGYCGISHGQSGQMTQALLLVAWASEDVVYTSFRYATGYTLPELYTGDAKLTQIASSVSGDSFEVLFRCENCFSWDQNGATGSVSTSNGALVLGYAASKSGLTGATCPDTAEFGFHNNGFGQWGAVLEGATSDSYEEWAQLATITPPTTCDGNGPGDKVCVPAPEDTYDYIVVGAGAGGITVADKLSEAGHKVLLIEKGPPSTGLWNGTMKPEWLEGTDLTRFDVPGLCNQIWVDSAGIACTDTDQMAGCVLGGGTAVNAGLWWKPHPADWDDNFPHGWKSSDLADATERVFSRIPGTWHPSQDGKLYRQEGFEVISQGLANAGWREVDANQEPSEKNRTYSHSVFMFSGGERGGPLATYLASAAQRSNFNLWVNTSVRRAIRTGPRVSGVELECLADGGFNGTVNLKEGGGVIFSAGAFGSAKLLLRSGIGPEDQLEIVASSKDGETFISKNDWIKLPVGHNLIDHLNTDLIITHPDVVFYDFYAAWDNPITEDKEAYLNSRSGILAQAAPNIGPLMWEEVTPSDGITRQFQWTCRVEGDSSKTNSTHAMTLSQYLGRGVVSRGRMGITSGLTTTVAEHPYLHNDGDLEAVIQGIQNVVDALSQVPDLEWVLPPPNTTVEEYVNSLIVSPANRRANHWMGTAKMGLDDGRSGGSAVVDLNTKVYGTDNLFVVDASIFPGMSTGNPSAMIVIVAEQAAQRILSLRY"}}, "key": {"[1]": {"substrate": "OC[C@H]1O[C@H](O[C@H]2[C@H](O)[C@@H](O)C(O)O[C@@H]2CO)[C@H](O)[C@@H](O)[C@@H]1O", "experiment": "purified protein, by the assay type", "conditions": "other: apparent, wt, DCIP assay, pH 5.5, 30° C.", "protocol": "Enzyme activity was assayed at 30° C. using either the DCIP (Karapetyan et al., 2005 Journal of Biotechnology 121: 34-48) or cytochrome c (Canevascini et al., 1991, European Journal of Biochemistry 198: 43-52) as electron acceptor. […] Stock solutions of carbohydrates used for kinetic measurements were prepared in the respective buffer and allowed to stand overnight for mutarotation, while stock solutions of electron acceptors were prepared in water and immediately used. The reaction stoichiometry is 1 for the two-electron acceptor DCIP (1 mole of DCIP reduced per mole of carbohydrate oxidized), but 2 for the one-electron acceptor cytochrome c. Kinetic constants were calculated by fitting the observed data to the Henri-Michaelis-Menten equation or to the adapted model for substrate inhibition using nonlinear least-squares regression and the program SigmaPlot (Systat Software, San Jose, Calif., USA).\nEnzymes were purified to homogeneity in a two-step purification. The sample was loaded on a 20 mL PHE Sepharose FF column (HR26/20) equilibrated with 50 mM Na-acetate buffer pH 5.5 containing 20% ammonium sulfate. Proteins were eluted by increasing the concentration of the elution buffer (50 mM Na-acetate buffer pH 5.5) from 0 to 100% in 5 column volumes and fractions containing CDH activity were pooled. After diafiltration with a polyethersulfone flat-stack cross flow module with a cut-off of 10 kDa (Viva Flow 50, Sartorius, Göttingen, Germany) until conductivity of 5 mS cm^−1 in 20 mM Na-acetate pH 5.5 the samples were loaded on a 20 mL Q-Source column (HR26/20) equilibrated with a 20 mM Na-acetate buffer pH 5.5. CDH was eluted by increasing the concentration of the elution buffer (50 mM Na-acetate buffer pH 5.5 containing 0.5 M NaCl) from 0 to 100% in 50 column volumes. Fractions were tested for CDH activity and pooled according to the highest Reinheitszahl (RZ, calculated from the absorbance ratio 420 nm/280 nm). Purified enzymes were concentrated and diafiltered in 50 mM citrate buffer, pH 5.5, aliquoted and kept at 4° C. for further use."}, "[2]": {"substrate": "OC[C@H]1OC(O)[C@H](O)[C@@H](O)[C@@H]1O", "experiment": "purified protein, by the assay type", "conditions": "other: apparent, wt, DCIP assay, pH 5.5, 30° C."}}}
{"protein": "B1", "values": [{"measurement": "Km", "setting": "[1]", "value": 4.08, "unit": "mM"}, {"measurement": "kcat", "setting": "[1]", "value": 0.50, "unit": "s⁻¹"}, {"measurement": "kcat/Km", "setting": "[1]", "value": 120, "unit": "M⁻¹ s⁻¹"}, {"measurement": "Km", "setting": "[2]", "value": 86.7, "unit": "mM"}]}
